Source: paper PMC5334639, “Nucleophosmin Interacts with PIN2/TERF1-interacting Telomerase Inhibitor 1 (PinX1) and Attenuates the PinX1 Inhibition on Telomerase Activity” (Scientific Reports, 2017)
Blank lines part the entries; values can stand above or below the binder they belong to.

Tests used:
[1] = molecular target: T1, PIN2/TERF1-interacting telomerase inhibitor 1 (PinX1), purified wild type (UniProt Q96BK5 1-328); assay: pull-down; purified PinX1 (3 mg) immobilised on a 1 ml HiTrap NHS-activated column; 1 mg NPM or NPM variant in PBS, 30 min at room temperature; washed with PBS, eluted with PBS with 1.5 M NaCl; SDS-PAGE; settings: both partners purified
T1 construct: PinX1, wild type, cloned into pGEX-6p-2; GST removed by PreScission protease; PinX1-C ends at aa328; also called purified PinX1; source: E. coli BL21(DE3)-pLysS, purified (Glutathione Sepharose, gel filtration)
T1 sequence (looked up): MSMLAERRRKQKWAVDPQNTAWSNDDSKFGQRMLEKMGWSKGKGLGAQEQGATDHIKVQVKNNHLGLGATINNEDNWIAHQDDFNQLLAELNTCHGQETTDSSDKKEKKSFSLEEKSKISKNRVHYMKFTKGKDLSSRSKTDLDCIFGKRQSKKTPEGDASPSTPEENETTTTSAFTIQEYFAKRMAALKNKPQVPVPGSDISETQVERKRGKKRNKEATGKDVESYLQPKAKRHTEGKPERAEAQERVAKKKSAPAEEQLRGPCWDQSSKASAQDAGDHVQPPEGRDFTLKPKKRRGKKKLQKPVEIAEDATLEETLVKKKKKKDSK

[2] = molecular target: T2, nucleophosmin (NPM), purified wild type (UniProt P06748 1-294); assay: pull-down; purified NPM (2 mg) immobilised on a 1 ml HiTrap NHS-activated column; 1 mg PinX1 truncation in PBS, 30 min at room temperature; washed with PBS, eluted with PBS with 1.5 M NaCl; SDS-PAGE; settings: both partners purified
T2 construct: nucleophosmin, wild type, cloned into pRSETA-HisSumo; HisSumo tag removed by Sumo protease; Truncations end at aa294; also called wild-type NPM; purified NPM; source: E. coli BL21(DE3)-pLysS, purified (HisTrap HP, gel filtration)

- binding result [1]: binds
B1: NPM 1–123 (domain or fragment, UniProt P06748 1-123, looked up)
chain: MEDSMDMDMSPLRPQNYLFGCELKADKDYHFKVDNDENEHQLSLRTVSLGAGAKDELHIVEAEAMNYEGSPIKVTLATLKMSVQPTVSLGGFEITPPVVLRLKCGSGPVHISGQHLVAVEEDA
notes: source: E. coli BL21(DE3)-pLysS, purified (HisTrap HP, gel filtration)

- binding result [2]: binds
B2: PinX1-C (aa254–328), purified (domain or fragment, UniProt Q96BK5 254-328, looked up)
chain: SAPAEEQLRGPCWDQSSKASAQDAGDHVQPPEGRDFTLKPKKRRGKKKLQKPVEIAEDATLEETLVKKKKKKDSK
notes: PinX1 residues 254-328; source: E. coli BL21(DE3)-pLysS, purified (Glutathione Sepharose, gel filtration)
